In patent US20200277399A1:

Key:
2F5 antibody [1] = test: ELISA on coated 2F5; Fc variant 10 ug/ml
2F5 antibody [2] = test: ELISA on coated 2F5; Fc variant 0.00457247 ug/ml
2F5 antibody [3] = test: ELISA on coated 2F5; Fc variant 0.01371742 ug/ml
2F5 antibody [4] = test: ELISA on coated 2F5; Fc variant 0.04115226 ug/ml
2F5 antibody [5] = test: ELISA on coated 2F5; Fc variant 0.12345679 ug/ml
2F5 antibody [6] = test: ELISA on coated 2F5; Fc variant 0.37037037 ug/ml
2F5 antibody [7] = test: ELISA on coated 2F5; Fc variant 1.11111111 ug/ml
2F5 antibody [8] = test: ELISA on coated 2F5; Fc variant 3.33333333 ug/ml

Row | Substance | absorbance (2F5 antibody [1]) | absorbance (2F5 antibody [2]) | absorbance (2F5 antibody [3]) | absorbance (2F5 antibody [4]) | absorbance (2F5 antibody [5]) | absorbance (2F5 antibody [6]) | absorbance (2F5 antibody [7]) | absorbance (2F5 antibody [8])
1 | Fc_ELDKWA_BC (from UniProt P0DOX5 227-449) | 0.619 | 0.0133 | 0.0107 | 0.0197 | 0.0213 | 0.047 | 0.091 | 0.232
2 | Fc_ELDKWA_DE (from UniProt P0DOX5 227-449) | 1.25 | 0.0177 | 0.0283 | 0.038 | 0.0673 | 0.185 | 0.495 | 0.846
3 | Fc_ELDKWA_FG (from UniProt P0DOX5 227-449) | 1.4 | 0.012 | 0.0215 | 0.0365 | 0.108 | 0.297 | 0.706 | 1.32
